Assay [1] has as its target T1, GST-PUB31 (Arabidopsis thaliana, UniProt Q9FHN9 1-444).
T1 construct: Plant U-box ubiquitin E3 ligase PUB31, Arabidopsis, full length
T1 sequence (looked up): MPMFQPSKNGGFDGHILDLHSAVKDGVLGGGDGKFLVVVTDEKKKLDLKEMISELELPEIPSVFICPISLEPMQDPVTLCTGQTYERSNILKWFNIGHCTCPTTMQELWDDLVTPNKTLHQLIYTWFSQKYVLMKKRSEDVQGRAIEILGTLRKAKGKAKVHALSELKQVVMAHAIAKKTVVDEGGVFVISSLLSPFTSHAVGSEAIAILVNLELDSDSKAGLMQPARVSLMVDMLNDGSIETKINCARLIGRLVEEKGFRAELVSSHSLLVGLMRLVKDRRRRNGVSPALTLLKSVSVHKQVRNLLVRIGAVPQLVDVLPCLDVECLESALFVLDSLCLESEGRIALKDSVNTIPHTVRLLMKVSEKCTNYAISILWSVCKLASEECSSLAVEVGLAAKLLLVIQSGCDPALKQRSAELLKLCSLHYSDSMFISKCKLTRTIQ
Nature of the assay: BLI; Octet Red96; GST-PUB30 or GST-PUB31 loaded on anti-GST probes (2000 nM for ERECTA_CD, 1000 nM for BAK1_CD); ERECTA_CD or BAK1_CD as analyte at seven concentrations; 30 °C; 1x PBS with 0.02 % Tween 20; 1:1 model, steady-state analysis. The settings on record: both partners purified. A general note: Biolayer interferometry detects binding as a change in optical thickness at a sensor tip.

Assay [2] has as its target T2, GST-PUB30 (Arabidopsis thaliana, UniProt Q058P4 1-448).
T2 construct: Plant U-box ubiquitin E3 ligase PUB30, Arabidopsis, full length
T2 sequence (looked up): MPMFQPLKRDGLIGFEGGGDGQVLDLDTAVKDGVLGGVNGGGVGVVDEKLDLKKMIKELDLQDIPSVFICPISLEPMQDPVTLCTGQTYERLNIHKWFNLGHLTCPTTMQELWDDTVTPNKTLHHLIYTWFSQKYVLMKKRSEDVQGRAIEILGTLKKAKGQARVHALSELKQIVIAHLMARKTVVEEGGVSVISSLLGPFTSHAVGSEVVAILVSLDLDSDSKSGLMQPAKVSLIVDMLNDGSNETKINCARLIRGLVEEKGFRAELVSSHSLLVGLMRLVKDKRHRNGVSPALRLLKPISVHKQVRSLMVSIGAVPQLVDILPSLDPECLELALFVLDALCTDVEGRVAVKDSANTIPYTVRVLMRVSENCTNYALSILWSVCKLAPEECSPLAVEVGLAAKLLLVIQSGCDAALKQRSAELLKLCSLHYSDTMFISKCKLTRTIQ
Described as above. To be noted: both partners purified.

Assay [3] deals with T3, GST-PUB31 (Arabidopsis thaliana, UniProt Q9FHN9 1-444).
T3 chain: T1 sequence (looked up)
Nature of the assay: BLI.

For assay [4], the target named is T4, GST-PUB30 (Arabidopsis thaliana, UniProt Q058P4 1-448).
T4 chain: T2 sequence (looked up)
In words: BLI.

For assay [5], the target named is T3, GST-PUB31. In words: BLI.
In assay [6] the target is T4, GST-PUB30. In words: BLI.

The record followed here is publication doi:10.1101/2022.07.11.499617, “Direct attenuation of Arabidopsis ERECTA signaling by a pair of U-box E3 ligases” (bioRxiv, 2022).

Where two headings read alike, the source gives them in different places.

By Kd is commonly meant the concentration at which binding is half-saturated. High values mean weaker binding, low ones tighter binding.

B1: MBP-BAK1_CD (domain or fragment, Arabidopsis thaliana, UniProt Q94F62 247-615, looked up)
chain: AWWRRKKPQDHFFDVPAEEDPEVHLGQLKRFSLRELQVASDNFSNKNILGRGGFGKVYKGRLADGTLVAVKRLKEERTQGGELQFQTEVEMISMAVHRNLLRLRGFCMTPTERLLVYPYMANGSVASCLRERPESQPPLDWPKRQRIALGSARGLAYLHDHCDPKIIHRDVKAANILLDEEFEAVVGDFGLAKLMDYKDTHVTTAVRGTIGHIAPEYLSTGKSSEKTDVFGYGVMLLELITGQRAFDLARLANDDDVMLLDWVKGLLKEKKLEALVDVDLQGNYKDEEVEQLIQVALLCTQSSPMERPKMSEVVRMLEGDGLAERWEEWQKEEMFRQDFNYPTHHPAVSGWIIGDSTSQIENEYPSGPR
notes: BRI1-ASSOCIATED RECEPTOR KINASE1 (BAK1/SERK3), Arabidopsis; cytoplasmic domain
In the case of B1, the “fold stronger interaction than ERECTA_CD” value in assay [1] and in assay [2] was around 10 fold in each case. Moreover, the Kd in assay [3] worked out at 2 µM; in assay [4], 2.4 µM.

B2: MBP-ERECTA_CD (domain or fragment)
chain: CRPHNPPPFLDGSLDKPVTYSTPKLVILHMNMALHVYEDIMRMTENLSEKYIIGHGASSTVYKCVLKNCKPVAIKRLYSHNPQSMKQFETELEMLSSIKHRNLVSLQAYSLSHLGSLLFYDYLENGSLWDLLHGPTKKKTLDWDTRLKIAYGAAQGLAYLHHDCSPRIIHRDVKSSNILLDKDLEARLTDFGIAKSLCVSKSHTSTYVMGTIGYIDPEYARTSRLTEKSDVYSYGIVLLELLTRRKAVDDESNLHHLIMSKTGNNEVMEMADPDITSTCKDLGVVKKVFQLALLCTKRQPNDRPTMHQVTRVLGSFMLSEQPPAATDTSATLAGSCYVDEYANLKTPHSVNCSSMSASDAQLFLRFGQVISQNSE
Regarding B2, the Kd turned out to be 11 µM in assay [5] and 15 µM in assay [6].
